Laboratory results taken from patent publication US20250352615A1, “COMPOSITIONS AND METHODS FOR THE MODULATION OF PIEZO1 AND TRPV4” (Duke University, priority 2021, published 2025).

How the values were obtained:
Piezo1 [1] = molecular target: T1, Piezo1 (Mus musculus, UniProt E2JF22); assay: Calcium imaging of Piezo1-mediated [Ca2+]i in mouse PSCs; format: cell-based; settings: GsMTx4 5 μM
T1 construct: endogenous in cells; host or cells: freshly isolated mouse pancreatic acini (WT = Piezo1 fl/fl on a C57BL/6J background)
T1 sequence (E2JF22 whole entry): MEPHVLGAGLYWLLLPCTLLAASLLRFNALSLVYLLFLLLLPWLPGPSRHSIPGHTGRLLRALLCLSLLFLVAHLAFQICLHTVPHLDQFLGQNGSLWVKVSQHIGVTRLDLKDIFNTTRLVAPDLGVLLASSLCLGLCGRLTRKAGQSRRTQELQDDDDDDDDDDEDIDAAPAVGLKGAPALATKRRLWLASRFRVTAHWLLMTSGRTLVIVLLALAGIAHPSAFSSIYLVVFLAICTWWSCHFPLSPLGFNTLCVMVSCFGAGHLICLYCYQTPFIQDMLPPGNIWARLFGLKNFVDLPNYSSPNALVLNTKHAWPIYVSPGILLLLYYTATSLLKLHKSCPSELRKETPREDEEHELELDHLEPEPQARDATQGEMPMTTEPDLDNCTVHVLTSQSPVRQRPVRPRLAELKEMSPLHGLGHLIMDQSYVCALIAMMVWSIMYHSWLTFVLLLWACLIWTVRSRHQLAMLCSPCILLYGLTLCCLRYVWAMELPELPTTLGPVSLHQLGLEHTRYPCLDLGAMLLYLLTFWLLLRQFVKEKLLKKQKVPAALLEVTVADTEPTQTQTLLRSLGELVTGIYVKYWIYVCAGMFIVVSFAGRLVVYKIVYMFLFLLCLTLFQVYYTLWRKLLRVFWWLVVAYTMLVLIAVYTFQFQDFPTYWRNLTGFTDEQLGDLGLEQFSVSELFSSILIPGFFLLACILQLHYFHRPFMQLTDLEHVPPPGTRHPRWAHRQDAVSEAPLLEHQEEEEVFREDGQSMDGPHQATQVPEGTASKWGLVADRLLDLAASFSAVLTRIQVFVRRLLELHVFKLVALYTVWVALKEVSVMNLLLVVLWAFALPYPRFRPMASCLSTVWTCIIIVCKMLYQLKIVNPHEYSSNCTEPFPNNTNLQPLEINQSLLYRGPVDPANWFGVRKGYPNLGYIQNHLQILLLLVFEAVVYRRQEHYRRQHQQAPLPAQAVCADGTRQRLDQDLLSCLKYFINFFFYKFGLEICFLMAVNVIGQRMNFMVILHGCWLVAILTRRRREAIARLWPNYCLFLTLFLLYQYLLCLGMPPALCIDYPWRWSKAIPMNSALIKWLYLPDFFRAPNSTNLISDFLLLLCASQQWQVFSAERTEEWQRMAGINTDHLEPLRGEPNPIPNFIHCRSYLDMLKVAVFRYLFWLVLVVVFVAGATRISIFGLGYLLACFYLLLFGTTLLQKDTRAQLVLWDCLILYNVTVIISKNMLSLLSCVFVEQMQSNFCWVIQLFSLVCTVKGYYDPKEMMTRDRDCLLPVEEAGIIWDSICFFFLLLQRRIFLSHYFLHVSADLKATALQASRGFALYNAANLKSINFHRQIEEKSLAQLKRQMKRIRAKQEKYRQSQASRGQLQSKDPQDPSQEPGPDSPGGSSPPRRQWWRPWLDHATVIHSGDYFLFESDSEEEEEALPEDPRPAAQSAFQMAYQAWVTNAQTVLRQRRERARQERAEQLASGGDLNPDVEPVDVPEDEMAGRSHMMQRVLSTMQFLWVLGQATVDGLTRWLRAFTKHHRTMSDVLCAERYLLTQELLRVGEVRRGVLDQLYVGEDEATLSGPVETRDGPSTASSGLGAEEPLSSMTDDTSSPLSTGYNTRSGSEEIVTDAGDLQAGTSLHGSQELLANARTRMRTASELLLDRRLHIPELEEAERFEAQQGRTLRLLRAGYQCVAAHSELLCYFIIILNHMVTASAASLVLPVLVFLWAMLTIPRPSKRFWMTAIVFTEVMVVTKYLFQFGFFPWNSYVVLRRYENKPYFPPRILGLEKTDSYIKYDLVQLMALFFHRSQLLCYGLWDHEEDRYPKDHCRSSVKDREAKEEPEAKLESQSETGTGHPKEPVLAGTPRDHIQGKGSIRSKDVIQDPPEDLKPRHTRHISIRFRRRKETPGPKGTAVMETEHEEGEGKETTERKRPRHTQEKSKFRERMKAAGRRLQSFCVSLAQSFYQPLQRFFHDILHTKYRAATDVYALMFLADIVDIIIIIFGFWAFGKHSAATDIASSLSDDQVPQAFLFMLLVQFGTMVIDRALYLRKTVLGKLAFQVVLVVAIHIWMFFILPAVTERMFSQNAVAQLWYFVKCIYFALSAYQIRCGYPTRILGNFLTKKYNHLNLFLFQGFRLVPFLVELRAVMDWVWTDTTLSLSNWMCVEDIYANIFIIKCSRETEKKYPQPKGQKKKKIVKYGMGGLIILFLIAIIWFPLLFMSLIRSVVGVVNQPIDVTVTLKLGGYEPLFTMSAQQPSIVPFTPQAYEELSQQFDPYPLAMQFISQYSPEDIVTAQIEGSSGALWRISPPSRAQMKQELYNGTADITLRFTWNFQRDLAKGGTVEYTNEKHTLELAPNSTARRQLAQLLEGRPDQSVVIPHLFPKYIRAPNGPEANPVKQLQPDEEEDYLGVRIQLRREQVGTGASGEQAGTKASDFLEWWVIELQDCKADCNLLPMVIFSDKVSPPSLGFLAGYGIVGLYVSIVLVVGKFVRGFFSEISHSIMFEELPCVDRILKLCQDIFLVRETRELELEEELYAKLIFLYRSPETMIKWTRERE
Experimental: (§1) Mouse and human PSCs were isolated using collagenase digestion. Modified Krebs Henseleit Buffer (KHB) solution (100 mL) was prepared as previously described by Romac et al., Nat. Commun. 9(1):1715 (2018). Pancreatic tissue was digested with 2 mg of collagenase NB 8 (SERVA, catalog 17456) dissolved in 10 mL of modified KHB solution containing 1 mg soybean trypsin inhibitor (SBTI 1-S; Millipore Sigma, catalog T9003) and 20 mg BSA (Thermo Fisher Scientific; BP1600-100). Digestion solution (5 mL) was used to inflate the pancreas. Pancreas with 5 mL of digestion solution was incubated in a shaking water bath for 10 minutes at 37° C. The solution was then discarded. The pancreas tissue was cut into small pieces and digested with fresh 5 mL digestion buffer. Tissue was incubated in a shaking water bath for 40 minutes at 37° C. The cells were then separated from tissue by pipetting up-down with a 10 mL pipette and passed sequentially through a 70 μm and a 40 μm cell strainer. The filtrate was centrifuged at 150×g for 3 minutes at room temperature. The cells were washed with 10 mL Leibovitz's media (Thermo Fisher Scientific, catalog 11415-064), passed through a 20 μm filter, and centrifuged at 80×g for 3 minutes at room temperature. The supernate was removed, and isolated stellate cells were plated on a thin-layered Matrigel-coated glass bottom culture plate (MatTek, P35G-0-14-C). Before plating the cells, Matrigel solution (Corning, catalog 354234) at a ratio of 1.5:100 DMEM/F12 (Thermo Fisher Scientific, catalog 11330-032) was poured onto the culture plate and incubated for 2 hr at 37° C. to form a thin layer of Matrigel coating. Matrigel mixture was removed, and the plate was washed with PBS before cells were plated. Cell culture media, DMEM/F12 with 5% FBS was used for mouse stellate cells. Fresh, human pancreatic tissue was digested with collagenase as described above with modifications. Collagenase (2.5 mg) in 10 mL of modified KHB solution was used for digestion. The digested tissues were filtered through a 100 μm cell strainer. The cells were cultured with DMEM/F12 with 10% FBS in a Matrigel-coated plate. After 24 hr, the cell media was replaced with fresh media to remove unattached and dead cells. After 2 days, cells were immunostained for GFAP and used for experiments. Perinuclear fat droplets were stained with BODIPY 493/503 (4,4-Difluoro-1,3,5,7,8-Pentamethyl-4-Bora-3a,4a-Diaza-s-Indacene; Invitrogen, catalog D3922) to confirm stellate cell quiescence. The cell viability following Yoda1 treatment was analyzed using the Live/Dead cell imaging kit (Thermo Fisher Scientific, catalog R37601). RNAs were isolated using the RiboPure Kit (Invitrogen, catalog AM1924) according to manufacturer's instructions.
(§2) Fluid shear stress and mechanical pushing applied to stellate cells were achieved as previously described by Wang et al., J. Clin. Invest. 126(12): 4527-4536 (2016). Parallel-plate fluid flow chambers (μ-Slide I 0.4 Luer, or μ-Slide I 0.2 Luer from Ibidi) were used for fluid shear stress experiments. The fluid shear stress (T) was calculated using the formula: τ=η×[…] φ for μ-Slide I 0.4 Luer and τ=η×330.4 φ for μ-Slide I 0.2 Luer, where r represents viscosity of the medium and φ represents flow rate (according to the manufacturer's instructions, Ibidi). Mechanical pushing was achieved by applying a blunt borosilicate glass pipette once to the cell membrane with a deflection of 2-3 μm for 1 second using a micromanipulator (World Precision Instruments).
Calcium 6-QF (Molecular Devices) dye was used for live-cell calcium imaging as described by Romac et al., Nat. Commun. 9(1):1715 (2018). Cells were imaged in HBSS buffer with 2 mM Ca^2+. Faintly and highly fluorescent loaded cells were excluded from analysis. […]

Piezo1 [2] = molecular target: T1, Piezo1; settings: pancreatic acini; recently reported; cited from earlier work
pancreatic acini [3] = assay: Trypsinogen activation in pancreatic acini (BZiPAR); format: cell-based, mouse; settings: GsMTx4 5 μM
Experimental: To visualize Piezo1-induced trypsinogen activation, acini were loaded with active trypsin enzyme substrate BZiPAR (10 μM). Na-HEPES buffer with 2 mM Ca^2+ was used during imaging. A Zeiss Axio observer Z1 with a high-sensitivity EMCCD camera with a ×40/0.75 EC-Plan-NeoFluar DIC objective was used to capture the Z-stack images with stack thickness of 3 μm at an interval of 12 seconds. The BZiPAR fluorescent wavelength Ex/Em was 498/521 nm. BZiPAR was excited at 470-510 nm and emission collected at 495-550 nm. The captured images were analyzed with MetaMorph software (Molecular Devices).

Piezo1 [4] = molecular target: T1, Piezo1; assay: Mechanical pushing-induced [Ca2+]i in pancreatic acini; format: cell-based; settings: prior treatment with GsMTx4; blunt pipette 5 μm for 1 second
Experimental: A borosilicate glass pipette (Sutter Instrument) was pulled using a pipette puller P-87 (Sutter Instruments) and made blunt with an MF-900 Microforge (Narishige). Acini were pushed once with a 2- to 3-μm tip blunt pipette to 5 μm for 1 second using a micromanipulator (World Precision Instruments).
Calcium imaging in pancreatic acini was performed as previously described. The chemicals used in calcium imaging experiments included the following: Yoda1 (Tocris; 5586), GsMTx4 (Abcam; ab141871), 5′,6′-EET (Santa Cruz Biotechnology; sc-221066), AA (Millipore Sigma; A3611), HC067047 (Tocris; 4100), GSK1016790A (Millipore Sigma; G0798), RN1734 (Tocris; 3746), AACOCF3 (Tocris; 1462), YM26734 (Tocris; 2522), GF109203X (Tocris; 0741), and CCK8 (Sigma-Aldrich).

human PSCs = assay: Human PSC activation and fibrogenic response (fat droplets, cell shape, ECM mRNA and immunostaining); format: cell-based; settings: GsMTx4 5 μM, 12 or 25 dyne/cm^2 for 10 minutes
Experimental: as §1, §2
Mouse and human PSCs were washed with PBS (pH 7.4) and fixed with 4% paraformaldehyde for 10 minutes at room temperature. The fixed cells were treated with 0.1% Triton X-100. […]

pancreatic acini [5] = assay: Mitochondrial depolarization in pancreatic acini (TMRE); format: cell-based, mouse; settings: GsMTx4 5 μM; Yoda1 50 μM; WT cells
Experimental: Live-cell mitochondrial depolarization was analyzed using the mitochondrial labeling dye, TMRE. Isolated acini were plated on a thin-layered, Matrigel-coated, glass-bottom culture plate with DMEM/F12 and 10% FBS media and placed in a CO2 incubator for 1 hr at 37° C. After 1 hr, the acini were incubated with TMRE (200 nM) in the bath buffer containing 140 mM NaCl, 4.7 mM KCl, 2.0 CaCl2, 1 mM MgCl2, 10 mM HEPES, and 10 mM glucose (pH adjusted to 7.4 with NaOH) for 30 minutes. The TMRE dye was washed and replaced with fresh bath buffer. The images were captured with a Zeiss Axio observer Z1 microscope with MetaMorph software (Molecular Devices) at intervals of 600 ms. TMRE was excited at 540-600 nm and emission collected at 585-675 nm. Carbonyl cyanide 4-(trifluoromethoxy) phenylhydrazone (FCCP), which uncouples the oxidative phosphorylation process and depolarizes mitochondria, was used as a positive control. A maximum of 2 mitochondrial puncta were taken per acinar cell.

Piezo1 [6] = molecular target: T2, Piezo1 (Homo sapiens, UniProt Q92508); assay: Calcium imaging of Piezo1-mediated [Ca2+]i in human PSCs; format: cell-based; settings: GsMTx4 5 μM, human PSCs
T2 construct: Fresh, human pancreatic tissue was digested with collagenase as described above with modifications; endogenous in cells; host or cells: primary human pancreatic stellate cells from fresh human pancreatic tissue
T2 sequence (Q92508 whole entry): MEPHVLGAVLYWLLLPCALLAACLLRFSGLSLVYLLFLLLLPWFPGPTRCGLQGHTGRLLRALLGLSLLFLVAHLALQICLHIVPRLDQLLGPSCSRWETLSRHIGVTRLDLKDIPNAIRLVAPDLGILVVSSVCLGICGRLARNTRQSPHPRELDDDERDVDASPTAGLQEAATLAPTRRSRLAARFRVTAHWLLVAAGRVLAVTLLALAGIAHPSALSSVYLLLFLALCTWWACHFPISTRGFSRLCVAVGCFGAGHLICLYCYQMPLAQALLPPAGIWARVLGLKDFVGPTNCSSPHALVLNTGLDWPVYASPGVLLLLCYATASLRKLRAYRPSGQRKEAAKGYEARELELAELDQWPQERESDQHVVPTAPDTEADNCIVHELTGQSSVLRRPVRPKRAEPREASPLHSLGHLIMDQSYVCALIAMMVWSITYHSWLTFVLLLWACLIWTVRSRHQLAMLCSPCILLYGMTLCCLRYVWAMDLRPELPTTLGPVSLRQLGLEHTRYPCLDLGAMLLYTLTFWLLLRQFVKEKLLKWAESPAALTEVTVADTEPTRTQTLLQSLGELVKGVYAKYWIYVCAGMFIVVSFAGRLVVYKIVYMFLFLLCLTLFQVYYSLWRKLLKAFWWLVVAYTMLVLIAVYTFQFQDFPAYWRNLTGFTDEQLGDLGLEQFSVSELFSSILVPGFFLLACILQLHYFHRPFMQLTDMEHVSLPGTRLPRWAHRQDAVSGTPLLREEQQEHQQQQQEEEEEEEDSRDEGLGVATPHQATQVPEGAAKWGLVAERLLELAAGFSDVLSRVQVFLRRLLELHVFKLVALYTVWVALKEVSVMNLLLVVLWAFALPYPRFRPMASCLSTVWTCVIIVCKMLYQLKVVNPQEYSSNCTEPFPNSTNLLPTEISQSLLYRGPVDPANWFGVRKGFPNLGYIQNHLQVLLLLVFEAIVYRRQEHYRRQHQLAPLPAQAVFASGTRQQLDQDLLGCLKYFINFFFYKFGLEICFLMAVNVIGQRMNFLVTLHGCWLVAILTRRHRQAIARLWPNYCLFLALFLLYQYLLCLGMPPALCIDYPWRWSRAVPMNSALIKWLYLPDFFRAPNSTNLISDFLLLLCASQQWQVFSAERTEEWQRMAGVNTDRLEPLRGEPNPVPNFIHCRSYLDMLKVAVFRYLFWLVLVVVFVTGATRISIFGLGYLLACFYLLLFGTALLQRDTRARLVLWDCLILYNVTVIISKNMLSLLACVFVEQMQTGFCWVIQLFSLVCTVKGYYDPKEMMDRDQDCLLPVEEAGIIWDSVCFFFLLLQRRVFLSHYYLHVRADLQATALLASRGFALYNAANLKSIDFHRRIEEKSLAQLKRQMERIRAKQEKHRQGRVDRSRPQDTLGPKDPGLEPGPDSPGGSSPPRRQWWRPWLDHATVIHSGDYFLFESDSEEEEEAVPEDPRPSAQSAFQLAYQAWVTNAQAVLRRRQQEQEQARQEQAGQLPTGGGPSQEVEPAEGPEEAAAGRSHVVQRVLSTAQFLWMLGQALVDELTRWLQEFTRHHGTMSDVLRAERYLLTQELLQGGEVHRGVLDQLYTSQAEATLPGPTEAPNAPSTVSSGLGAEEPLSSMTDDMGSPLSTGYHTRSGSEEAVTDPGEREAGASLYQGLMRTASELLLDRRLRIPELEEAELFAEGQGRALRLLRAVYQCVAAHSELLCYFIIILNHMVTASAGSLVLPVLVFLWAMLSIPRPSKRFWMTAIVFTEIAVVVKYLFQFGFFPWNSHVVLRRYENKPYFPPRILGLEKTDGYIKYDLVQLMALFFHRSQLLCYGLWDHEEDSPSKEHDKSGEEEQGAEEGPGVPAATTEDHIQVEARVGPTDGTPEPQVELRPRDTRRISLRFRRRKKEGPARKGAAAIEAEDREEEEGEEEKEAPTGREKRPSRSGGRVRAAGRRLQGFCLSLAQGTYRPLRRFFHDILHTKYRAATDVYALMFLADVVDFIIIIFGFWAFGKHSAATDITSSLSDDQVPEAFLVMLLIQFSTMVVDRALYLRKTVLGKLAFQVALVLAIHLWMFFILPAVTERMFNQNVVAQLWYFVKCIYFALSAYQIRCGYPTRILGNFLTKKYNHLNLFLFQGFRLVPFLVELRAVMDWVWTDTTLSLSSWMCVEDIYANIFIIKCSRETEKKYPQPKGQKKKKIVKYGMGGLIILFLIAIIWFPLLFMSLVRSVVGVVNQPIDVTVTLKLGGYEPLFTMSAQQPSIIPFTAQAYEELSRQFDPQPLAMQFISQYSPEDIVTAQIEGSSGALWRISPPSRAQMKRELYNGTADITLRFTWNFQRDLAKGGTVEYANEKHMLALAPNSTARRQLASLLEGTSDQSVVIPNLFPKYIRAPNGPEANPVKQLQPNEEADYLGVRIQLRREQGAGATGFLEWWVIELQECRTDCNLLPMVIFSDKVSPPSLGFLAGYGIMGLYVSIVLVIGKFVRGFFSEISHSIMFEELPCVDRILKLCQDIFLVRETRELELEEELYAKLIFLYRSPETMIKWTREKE
Experimental: Mouse and human PSCs were isolated using collagenase digestion. Modified Krebs Henseleit Buffer (KHB) solution (100 mL) was prepared as previously described by Romac et al., Nat. Commun. 9(1):1715 (2018). Pancreatic tissue was digested with 2 mg of collagenase NB 8 (SERVA, catalog 17456) dissolved in 10 mL of modified KHB solution containing 1 mg soybean trypsin inhibitor (SBTI 1-S; Millipore Sigma, catalog T9003) and 20 mg BSA (Thermo Fisher Scientific; BP1600-100). Digestion solution (5 mL) was used to inflate the pancreas. Pancreas with 5 mL of digestion solution was incubated in a shaking water bath for 10 minutes at 37° C. The solution was then discarded. The pancreas tissue was cut into small pieces and digested with fresh 5 mL digestion buffer. Tissue was incubated in a shaking water bath for 40 minutes at 37° C. The cells were then separated from tissue by pipetting up-down with a 10 mL pipette and passed sequentially through a 70 μm and a 40 μm cell strainer. The filtrate was centrifuged at 150×g for 3 minutes at room temperature. The cells were washed with 10 mL Leibovitz's media (Thermo Fisher Scientific, catalog 11415-064), passed through a 20 μm filter, and centrifuged at 80×g for 3 minutes at room temperature. The supernate was removed, and isolated stellate cells were plated on a thin-layered Matrigel-coated glass bottom culture plate (MatTek, P35G-0-14-C). […] The cell viability following Yoda1 treatment was analyzed using the Live/Dead cell imaging kit (Thermo Fisher Scientific, catalog R37601). […]
Fluid shear stress and mechanical pushing applied to stellate cells were achieved as previously described by Wang et al., J. Clin. Invest. […] The fluid shear stress (T) was calculated using the formula: τ=η×[…] φ for μ-Slide I 0.4 Luer and τ=η×330.4 φ for μ-Slide I 0.2 Luer, where r represents viscosity of the medium and φ represents flow rate (according to the manufacturer's instructions, Ibidi). […]

GsMTx4 (GCLEFWWKCNPNDDKCCRPKLKCSKLFKLCNFSF; HELM PEPTIDE1{G.C.L.E.F.W.W.K.C.N.P.N.D.D.K.C.C.R.P.K.L.K.C.S.K.L.F.K.L.C.N.F.S.F.[am]}$PEPTIDE1,PEPTIDE1,16:R3-30:R3|PEPTIDE1,PEPTIDE1,2:R3-17:R3|PEPTIDE1,PEPTIDE1,9:R3-23:R3$$$V2.0; N-terminus assumed; SMILES CC(C)C[C@@H]1NC(=O)[C@@H](NC(=O)CN)CSSC[C@@H]2NC(=O)[C@@H]3CSSC[C@@H](C(=O)N[C@@H](CC(N)=O)C(=O)N[C@@H](Cc4ccccc4)C(=O)N[C@@H](CO)C(=O)N[C@@H](Cc4ccccc4)C(N)=O)NC(=O)[C@H](CC(C)C)NC(=O)[C@H](CCCCN)NC(=O)[C@H](Cc4ccccc4)NC(=O)[C@H](CC(C)C)NC(=O)[C@H](CCCCN)NC(=O)[C@H](CO)NC(=O)[C@H](CSSC[C@H](NC(=O)[C@H](CCCCN)NC(=O)[C@H](Cc4c[nH]c5ccccc45)NC(=O)[C@H](Cc4c[nH]c5ccccc45)NC(=O)[C@H](Cc4ccccc4)NC(=O)[C@H](CCC(=O)O)NC1=O)C(=O)N[C@@H](CC(N)=O)C(=O)N1CCC[C@H]1C(=O)N[C@@H](CC(N)=O)C(=O)N[C@@H](CC(=O)O)C(=O)N[C@@H](CC(=O)O)C(=O)N[C@@H](CCCCN)C(=O)N3)NC(=O)[C@H](CCCCN)NC(=O)[C@H](CC(C)C)NC(=O)[C@H](CCCCN)NC(=O)[C@@H]1CCCN1C(=O)[C@H](CCCNC(=N)N)NC2=O; UniProt Q7YT39 47-80, looked up)
effect on Yoda1-induced calcium rise (Piezo1 [1]; mouse PSCs): blocked the calcium rise produced by Yoda1 | effect on shear stress-induced transient [Ca2+]i elevation in TRPV4-null PSCs (Piezo1 [1]; 12 dyne/cm^2 for 1 minute): blocked the effects of high shear stress (12 dyne/cm^2 for 1 minute) on the transient [Ca^2+]i elevation | effect on Yoda1-mediated [Ca2+]i rise (Piezo1 [2]): inhibits the Yoda1-mediated [Ca^2+]i rise | effect on Yoda1-induced trypsin activation (pancreatic acini [3]): blocked the Yoda1-induced trypsin activation | effect on mechanical pushing-induced transient [Ca2+]i rise (Piezo1 [4]): completely blocked | effect on shear stress-mediated pathological changes (fat droplet loss, fibronectin, collagen type I) (human PSCs): attenuated the shear stress-mediated pathological changes | effect on Yoda1-induced mitochondrial depolarization (pancreatic acini [5]): blocked the Yoda1-induced mitochondrial depolarization | effect on Yoda1 (25 μM)-mediated [Ca2+]i rise (Piezo1 [6]): sensitive to GsMTx4 blockade | effect on fluid shear stress-induced sustained [Ca2+]i increase (Piezo1 [6]; 12 dyne/cm^2 for 1 minute): blocked
